Measured values reported in patent US20230295316A1.

Biological target: Nonhuman Primate CD123
Experiment: SPR (Biacore T-100), univalent affinity; antibody captured on the CM4 chip, nonhuman primate CD123 ECD as analyte

Sequence of Nonhuman Primate CD123 (soluble extracellular domain with His and Avi tags, as listed by the source limits assumed, form in doubt): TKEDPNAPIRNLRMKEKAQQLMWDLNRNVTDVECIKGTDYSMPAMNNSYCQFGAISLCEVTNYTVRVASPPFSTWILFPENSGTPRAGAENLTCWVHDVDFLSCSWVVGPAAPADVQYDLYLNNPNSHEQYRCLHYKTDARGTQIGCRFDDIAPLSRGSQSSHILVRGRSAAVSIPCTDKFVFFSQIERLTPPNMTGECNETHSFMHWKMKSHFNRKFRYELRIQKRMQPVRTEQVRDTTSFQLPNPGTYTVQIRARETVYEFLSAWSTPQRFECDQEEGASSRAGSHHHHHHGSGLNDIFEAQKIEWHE

Kd: 16.1 nM | koff: 0.0023 s⁻¹ | kon: 143000 M⁻¹ s⁻¹
B1: 123-10C4 (murine anti-CD123 antibody, IgG2b isotype, Kappa Light Chain) (antibody, V domains shown)
VH: QVQLKESGPGLVAPSQNLSITCTVSGFSLTTYDINWIRQPPGKGLEWLGVIWTGGGTNYNSAFMSRLSISKDNSKSQVFLKMNSLQTDDTAMYYCVRGDTYHYALDFWGQGTSVTVSS
VL: DIVMSQSPSSLAVSAGEKVTMSCKSSQSLLSSGTRKNYLAWYQQKPGQSPKLLIYWASTRESGVPDRFTGSGSGTDFTLTISSVQAEDLAVYYCKQSYILFTFGSGTKLEIK
